Laboratory results as given in PMC4124035 (Nature structural & molecular biology, 2014).
Where two headings read alike, the source gives them in different places.

Key:
[1] = target: RPRD1B coiled-coil domain (human) (UniProt Q9NQG5); assay: AUC
[2] = target: RPRD1B coiled-coil domain (human) (UniProt Q9NQG5); assay: AUC; remark: listed apart in the source
[3] = target: RPRD1A CTD interaction domain (CID), residues 2-137 (human) (UniProt Q96P16); assay: ITC
[4] = target: RPRD1B CTD interaction domain (CID), residues 2-135 (human) (UniProt Q9NQG5); assay: ITC
[5] = target: RPRD1B coiled-coil domain (solution experiments) (human) (UniProt Q9NQG5); assay: AUC
RPAP2 [6] = assay: In vitro phosphatase ELISA on biotinylated CTD peptides; assay type: biochemical, human; details: Supplementary Fig. 4d
[7] = target: RPRD2 CTD interaction domain (CID), residues 15-161 (human) (UniProt Q5VT52); assay: ITC
RPRD1B CID = target: T1, RPRD1B CID (Homo sapiens, UniProt Q9NQG5); assay: ITC binding of CTD peptides to RPRD1B CID; details: ratio of Kd values of Table 1
T1 sequence (Q9NQG5 2-135): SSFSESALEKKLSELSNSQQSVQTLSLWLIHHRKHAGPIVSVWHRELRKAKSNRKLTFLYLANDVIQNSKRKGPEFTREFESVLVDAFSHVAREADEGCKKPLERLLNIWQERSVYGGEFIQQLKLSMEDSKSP

RPRD2 CID = target: T2, RPRD2 CID (Homo sapiens, UniProt Q5VT52); assay: ITC binding of CTD peptides to RPRD2 CID; details: ratio of Kd values of Table 1
T2 sequence (Q5VT52 15-161): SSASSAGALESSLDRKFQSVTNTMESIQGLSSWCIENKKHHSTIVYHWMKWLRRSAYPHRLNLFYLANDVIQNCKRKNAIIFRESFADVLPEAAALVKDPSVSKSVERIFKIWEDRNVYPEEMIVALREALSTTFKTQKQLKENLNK

RPRD1A CID = target: T3, RPRD1A CID (Homo sapiens, UniProt Q96P16); assay: ITC binding of CTD peptides to RPRD1A CID; details: ratio of Kd values of Table 1
T3 sequence (Q96P16 2-137): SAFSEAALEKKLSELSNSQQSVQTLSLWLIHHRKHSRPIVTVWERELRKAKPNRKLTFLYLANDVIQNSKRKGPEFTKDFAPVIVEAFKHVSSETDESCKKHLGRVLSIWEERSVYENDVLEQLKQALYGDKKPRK

RPAP2 [8] = assay: Phosphatase assay with pNPP substrate; assay type: biochemical, human; details: unpublished data
RPAP2 (1-334) = assay: In vitro DiFMUP phosphatase assay; assay type: biochemical, human; details: 10 μM DiFMUP, 50 mM 3,3-dimethylglutaric acid pH 6.5, 37°C, fluorescence every 20 min for 2 hours
RPRD1A CID R106A = target: T4, RPRD1A CID R106A (human, UniProt Q96P16 2-137, R106A); assay: ITC
T4 sequence: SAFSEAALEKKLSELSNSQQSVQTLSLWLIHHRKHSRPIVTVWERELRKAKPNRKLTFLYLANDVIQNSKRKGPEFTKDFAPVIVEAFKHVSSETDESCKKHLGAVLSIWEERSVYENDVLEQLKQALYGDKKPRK

RPRD1B coiled-coil domain (from UniProt Q9NQG5 137-326) (domain or fragment)
stoichiometry N [1]: 2
stoichiometry N [2]: 2

S2,7P CTD peptide
fold increase of affinity compared to S2P alone [3]: 1.6 fold
fold increase of affinity compared to S2P alone [4]: 2.6 fold

RPRD1B coiled-coil domain (solution experiments) (from UniProt Q9NQG5 137-326) (domain or fragment)
percent dimer [5]: 89.6%

[O]=[V]([O-])([O-])[O-] [vanadate]
inhibition of RPRD1A-dependent S5 dephosphorylation by RPAP2 (RPAP2 [6]): inhibited

S5P CTD peptide
Kd [3]: > 1000 µM
Kd [7]: > 1000 µM
Kd [4]: > 1000 µM

C[C@@H](O)[C@H](NC(=O)[C@@H]1CCCN1C(=O)[C@H](COP(=O)(O)O)NC(=O)[C@H](Cc1ccc(O)cc1)NC(=O)[C@H](COP(=O)(O)O)NC(=O)[C@@H]1CCCN1C(=O)[C@H](CO)NC(=O)[C@@H](NC(=O)[C@@H]1CCCN1C(=O)[C@H](COP(=O)(O)O)NC(=O)[C@H](Cc1ccc(O)cc1)NC(=O)[C@H](CO)NC(=O)[C@@H]1CCCN1C(=O)[C@@H](N)CO)[C@@H](C)O)C(=O)N[C@@H](CO)C(=O)N1CCC[C@H]1C(=O)N[C@@H](COP(=O)(O)O)C(=O)N[C@@H](Cc1ccc(O)cc1)C(=O)N[C@@H](CO)C(=O)O [S2,7P CTD]
fold increase of RPRD1B CID affinity compared to S2P CTD (RPRD1B CID): 2.6 fold
fold increase of RPRD2 CID affinity compared to S2P CTD (RPRD2 CID): remained unchanged
fold increase of RPRD1A CID affinity compared to S2P CTD (RPRD1A CID): 1.6 fold

S5,7P CTD peptide
Kd [3]: > 1000 µM
Kd [7]: > 1000 µM
Kd [4]: > 1000 µM

O=[N+]([O-])c1ccc(OP(=O)(O)O)cc1 [pNPP, para-nitrophenylphosphate]
phosphatase activity of RPAP2 on the substrate (RPAP2 [8]): No measurable phosphatase activity

Cc1cc(=O)oc2c(F)c(OP(=O)(O)O)c(F)cc12 [DiFMUP, 6,8-difluoro-4-methylumbelliferyl phosphate]
dephosphorylation of the substrate by RPAP2 (1-334) (RPAP2 (1-334)): dephosphorylated DiFMUP in a time- and dose-dependent manner

S2,5P CTD peptide
Kd [3]: > 1000 µM
Kd [7]: > 1000 µM
Kd [4]: > 1000 µM

B1: 19-mer S2P CTD peptide (peptide)
peptide: SPSYSPTSPSYSPTSPSYS
fold reduction of binding against wild type (RPRD1A CID R106A): ~27 fold
